Results reported in publication PMC10450195.

Tests used:
[1] = system: LANA peptide (Kaposi's Sarcoma Herpesvirus); test: fluorescence polarization; details: FP: 20 mM HEPES pH 7.5, 150 mM NaCl, 0.5 mM EDTA, 1 mM DTT, 0.05% Triton X-100, 20 C, 50 nM peptide, EMSA: 15 mM HEPES pH 7.5, 150 mM NaCl
[2] = molecular target: Homo sapiens nucleosome core particle (human) (UniProt P68431); test: fluorescence polarisation

Row | Substance | Kd [1] [nM] | Kd [2] [nM]
1 | H. sapiens NCP | 2380 | 
2 | Kaposi's Sarcoma Herpesvirus Latency Associated Nuclear Antigen (LANA) peptide, aa. 4-23 |  | 2380
